B1: R3-P3-C11 (antibody, human IgG1, kappa, V domains shown)
VH: EVQLVESGGGLVQPGRSLRLACEASGFTFNNYAVHWVRQAPGKGLEWVAVISYDGTNKYYSDSMKGRFTISRDNSKNTLYLQINSLRVEDTAVYFCARGNYVRRDSFDIWGQGTMVTVSS
VL: DIQMTQSPPSLSASVGDRVTITCRASQSISSYLNWYQQKPGKAPKLLIYGASSLQSGVPLRFSGSGSGADFTLTISSLQPEDFATYYCQQSYISPITFGQGTRLEIKR
notes: human IgG1 kappa from the phage campaign
B2: R4M-P3-E06 (antibody, human IgG1, kappa, V domains shown)
VH: EVQLVESGGGVVQPGGSLRLSCAASGFTFSNYGMHWVRQAPGKGLEWVATISYDGTKKYYPDSVRGRFTISRDNSENMLYLQMDSLRLEDTAVIYCAKDLVSGSRYGFAFDSWGPGTLVTVSS
VL: DIVMTQSPLSLPVTLGQPASISCRSSQSLVHSDGNTYLNWFQQRPGQSPRRLIYKVSNRDSGVPDRFSGTGSGTDFTLKISRVEADDVGVYYCMQGTHWPPIFGQGTRLEIKR
notes: as for B1

What was measured:
[1] = biological target: human Sdc2 on Human Umbilical Vein Endothelial Cells (HUVEC) (human, UniProt P34741 19-201); experiment: cell-based or functional assay
Sequence of human Sdc2 on Human Umbilical Vein Endothelial Cells (HUVEC) (P34741 19-201 limits assumed): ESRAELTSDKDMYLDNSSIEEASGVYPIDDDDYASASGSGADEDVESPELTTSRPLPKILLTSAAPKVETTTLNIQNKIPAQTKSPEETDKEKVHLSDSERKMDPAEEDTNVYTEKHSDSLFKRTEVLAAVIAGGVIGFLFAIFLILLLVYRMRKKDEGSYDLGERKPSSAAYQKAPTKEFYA

human Sdc2 [2] = biological target: T1, human Sdc2 (human, UniProt P34741 19-144, limits assumed); experiment: Kd (human Sdc2), summary table of the mAbs
T1 construct: Antigen of the Octet tandem binning, loaded on biosensors at 100 nM; also called huSdc2; hSdc2
T1 sequence (P34741 19-144 limits assumed): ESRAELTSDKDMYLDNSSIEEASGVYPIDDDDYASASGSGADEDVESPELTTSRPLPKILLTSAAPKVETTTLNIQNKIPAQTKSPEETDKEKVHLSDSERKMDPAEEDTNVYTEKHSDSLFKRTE

human Sdc2 [3] = biological target: T1, human Sdc2; experiment: Octet BLI, heading box over the sensorgram
pig Sdc2 [4] = biological target: T2, pig Sdc2 (pig, UniProt F1S0L5 19-145); experiment: Octet BLI, heading box over the sensorgram
T2 construct: also called pSdc2

human Sdc2 [5] = biological target: T1, human Sdc2; experiment: Octet tandem binning; saturating Ab f3 19838-6N03-A
Method: (§1) These studies were performed in a tandem binning assay format with human Sdc2, used as the antigen (concentration of 100 nM). Antigen loaded biosensors were dipped in a saturating solution of antibody (25 μg/ml) for 240 seconds followed by a competing antibody at 5 μg/ml for 180 seconds. […] Since saturation is not possible to achieve saturation with these clones, they are removed in as ligands, but retained in the analyte orientation in the analysis. A table summarizing the results of epitope binning of the 18 antibodies against huSdc2 is illustrated in FIG. 30. Data is normalized, where the raw binding signal from Competing Ab for a given Saturating Ab is divided by binding in the absence a […] (“buffer”). The threshold determining the matrix color is adjustable and dependent upon Ag-Ab binding. […] Table rows are based on similar looking binding profiles. Note that the coloration/cutoff is subjective, yellow color added to represent injections with ambiguous or very weak sandwiching signals. FIG. 31 illustrates a clustergram of the epitope binning studies, which was generated from the normalized binning data by importation into the statistical computing program R (The R Project for Statistical Computing: at r-project.org) and generation of a clustergram with the pvclust package.

human Sdc2 [6] = biological target: T1, human Sdc2; experiment: Octet tandem binning; saturating Ab m2 19838-8G17-A
Method: as §1

human Sdc2 [7] = biological target: T1, human Sdc2; experiment: Octet tandem binning; saturating Ab f9 19838-6-E17-A
Method: as §1

human Sdc2 [8] = biological target: T1, human Sdc2; experiment: Octet tandem binning; saturating Ab f12 19838-6-N03-A
Method: as §1

human Sdc2 [9] = biological target: T1, human Sdc2; experiment: Octet tandem binning; saturating Ab m1 19838-20H19-AB
Method: as §1

human Sdc2 [10] = biological target: T1, human Sdc2; experiment: Octet tandem binning; saturating Ab f10 19838-10-I12-A
Method: as §1

human Sdc2 [11] = biological target: T1, human Sdc2; experiment: Octet tandem binning; saturating Ab f11 19838-20-H19-A
Method: as §1

human Sdc2 [12] = biological target: T1, human Sdc2; experiment: Octet tandem binning; saturating Ab f6 19844-R3-P3-E09
Method: as §1

human Sdc2 [13] = biological target: T1, human Sdc2; experiment: Octet tandem binning; saturating Ab f7 19844-R3-P3-A12
Method: as §1

human Sdc2 [14] = biological target: T1, human Sdc2; experiment: Octet tandem binning; saturating Ab m7 19844-R3-P1-E07
Method: as §1

human Sdc2 [15] = biological target: T1, human Sdc2; experiment: Octet tandem binning; saturating Ab f5 19844-R4M-P3-E06
Method: as §1

human Sdc2 [16] = biological target: T1, human Sdc2; experiment: Octet tandem binning; saturating Ab f8 19844-R4M-P2-C02
Method: as §1

human Sdc2 [17] = biological target: T1, human Sdc2; experiment: Octet tandem binning; saturating Ab m4 19844-R4M-P1-A10
Method: as §1

human Sdc2 [18] = biological target: T1, human Sdc2; experiment: Octet tandem binning; Buffer in place of a saturating Ab
Method: as §1

human Sdc2 [19] = biological target: T1, human Sdc2; experiment: Octet BLI, HIS1K sensor loaded with huSdc2, antibody as sample; Full R2 0.9738
pig Sdc2 [20] = biological target: T2, pig Sdc2; experiment: Octet BLI, HIS1K sensor loaded with pigSdc2, antibody as sample; Full R2 0.9504
human Sdc2 [21] = biological target: T1, human Sdc2; experiment: Octet tandem binning; saturating Ab m6 19838-20H19-AA (marked non-binding ligand)
Method: as §1

human Sdc2 [22] = biological target: T1, human Sdc2; experiment: Octet tandem binning; saturating Ab m3 19844-R3-P1-C02 (row boxed, self-self >0.09)
Method: as §1

human Sdc2 [23] = biological target: T1, human Sdc2; experiment: Octet tandem binning; saturating Ab m8 19844-R4M-P1-B01 (marked non-binding ligand)
Method: as §1

human Sdc2 [24] = biological target: T1, human Sdc2; experiment: Octet tandem binning; saturating Ab m5 19844-R4M-P3-A12 (row boxed, self-self >0.09)
Method: as §1

human Sdc2 [25] = biological target: T1, human Sdc2; experiment: Octet BLI, heading box over the sensorgram; remark: listed apart in the source
human Sdc2 [26] = biological target: T1, human Sdc2; experiment: Octet tandem binning; saturating Ab f4 19844-R3-P3-C11
Method: as §1

human Sdc2 [27] = biological target: T1, human Sdc2; experiment: Octet BLI, AHC sensor loaded with the antibody, huSdc2 as sample; Full R2 0.9525
Method: In order to characterize the binding affinity and in vivo/in vitro functional ability of the twelve clones generated by the previous studies and disclosed in Table 1, a series of assays were performed on each clone. These assays measured the affinity of each antibody clone for human, pig, and mouse Sdc2 using an Octet® binding assay system. Additionally, the functional ability of each clone to inhibit VEGFA-driven permeability (see Santiago, et al. (2021) J Am Heart Assoc. 10(18):e020521) was assessed in two therapeutic settings: a “prevention” study in which three concentrations of antibody (5 μg/ml, 10 μg/ml, 15 μg/ml, 20 μg/ml, and/or 40 μg/ml depending on the study) were pre-incubated for an hour before administration of 100 ng/ml of VEGFA, and a “treatment” study in which 3 hours of pre-treatment with 100 ng/ml VEGFA were followed by treatment with antibody at 20 μg/ml or 40 μg/ml. Results are shown for 8-G17 in FIG. 8 and FIG. 9, 20-H19-AB in FIG. 10 and FIG. 11 (FIG. 12 for monkey ECs), R3-P3-C11 in FIG. 13 and FIG. 14, R4M-P3-E06 in FIG. 15 and FIG. 16, R3-P3-E09 in FIG. 17 and FIG. 18, R3-P1-C02 in FIG. 19 and FIG. 20, R3-P3-A12 in FIG. 21 and FIG. 22, R4M-P3-A12 in FIG. 23 and FIG. 24, and R4M-P1-A10 in FIG. 25 and FIG. 26.

human Sdc2 [28] = biological target: T1, human Sdc2; experiment: Octet BLI, AHC sensor loaded with the antibody, huSdc2 as sample (curves huSdc2, 2000 and 1000, unit inferred); Full R2 0.9525

Row | Binder | % Inhibition of VEGFA-induced permeability at 24hrs (20ug/ml) [1] [%] | Kd (human Sdc2 [2]) [nM] | raw competing-Ab binding signal (human Sdc2 [5]) | raw competing-Ab binding signal (human Sdc2 [6]) | raw competing-Ab binding signal (human Sdc2 [7]) | raw competing-Ab binding signal (human Sdc2 [8]) | raw competing-Ab binding signal (human Sdc2 [9]) | raw competing-Ab binding signal (human Sdc2 [10]) | raw competing-Ab binding signal (human Sdc2 [11]) | raw competing-Ab binding signal (human Sdc2 [12]) | raw competing-Ab binding signal (human Sdc2 [13]) | raw competing-Ab binding signal (human Sdc2 [14]) | raw competing-Ab binding signal (human Sdc2 [16]) | raw competing-Ab binding signal (human Sdc2 [17]) | raw competing-Ab binding signal (human Sdc2 [18]) | raw competing-Ab binding signal (human Sdc2 [21]) | raw competing-Ab binding signal (human Sdc2 [22]) | raw competing-Ab binding signal (human Sdc2 [23]) | raw competing-Ab binding signal (human Sdc2 [24]) | other results
1 | B1 | 100 | 2.26 | 0.645 | 0.629 | 0.542 | 0.697 | 0.569 | 0.351 | 0.585 | 0.299 | -0.0267 | 0.573 | 0.479 | 0.518 | 0.523 | 0.593 | 0.491 | 0.576 | 0.562 | Kd (human Sdc2 [3]): ~2.26 nM; Kd (pig Sdc2 [4]): ~10.2 nM; raw competing-Ab binding signal (human Sdc2 [15]): 0.61; Kd (human Sdc2 [19]): 2.26 nM; koff (human Sdc2 [19]): 0.00304 s⁻¹; kon (human Sdc2 [19]): 1.34e+06 M⁻¹ s⁻¹; Kd (pig Sdc2 [20]): 10.2 nM; koff (pig Sdc2 [20]): 0.0417 s⁻¹; kon (pig Sdc2 [20]): 4.1e+06 M⁻¹ s⁻¹
2 | B2 | 95 | 448 | 0.209 | 0.183 | 0.231 | 0.252 | 0.284 | 0.241 | 0.311 | 0.025 | 0.0799 | 0.247 | 0.0709 | 0.116 | 0.256 | 0.251 | 0.0913 | 0.25 | 0.223 | Kd (human Sdc2 [25]): ~480 nM; raw competing-Ab binding signal (human Sdc2 [26]): 0.0598; koff (human Sdc2 [27]): 0.041 s⁻¹; kon (human Sdc2 [27]): 84000 M⁻¹ s⁻¹; Kd (human Sdc2 [28]): 488 nM
